Results: the domain aggregation screens of Martell et al. (2025)

Assay: soluble fraction after stress (log2 fold change); higher = more stays soluble; pooled small domains, quantitative proteomics
Conditions: stress: pH 4
Outline: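 Following acid stress at pH 4, the amount of each small protein domain still soluble was measured in pooled custom libraries by high-throughput quantitative proteomics. Its fold change, on a log2 scale, is higher when more of the domain stayed soluble. This fold change is taken as a measure of aggregation propensity.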

Sequence	soluble fraction (log2)
HMRMSQLSRLISILTLLKSKRLLTATELAEKYDVSIRTVYRDIRKLEEAGIPVYTIEGRGYSLMDNYT	-0.299
HMSDDAVVRMRVPEDALGLSLRETDFRQRFGVYVLAIETRDGKLLAPPDPQRPLGKDDVLVVIQKR	-0.279
HMIVSEYIIIGGDKKEYGPVSMGEVGEWVQGGRANGDSKIKKVGTEEWGRLRDFPEFSAYLS	-0.309
HMELDMTFGEKIQKLRKESGLSQEELSYQLGVSRQAISKWERDSGYPETEKIVRMSKIFDVTLDYLLNE	-1.06
HMEYEETMSQIKHNLNLLPRQQRVIIEMAKFDELTPAEIAKQLGISVQTVRNQLSTGLKKLRQLL	-0.373
HMPIHAGERLTLRLAGEGREAGQAIGYLEDGTLVIVERARHLIGQDVTVEVTRTLQTAGGRLVFAHLVE	-0.896
HMQSHIVPDVKSQHIAQAKALLESKQMKAVVIDSNFVKGLPAGIVLDQTPIGGARVKENRTIYLTINTL	0.0867
HMVNKQERTYTILRDRIHSGSFAPLERLNIDALARELGVSPIPVREALRRLEAEGWVRFTPNVGAVVSP	0.308
HMVQIIQLQGTDKRLYELVAPLVMNPEILKQNYNYPFRTSEDFVWFVAVDKKKVIGFIPVEEKKKEYVI	-0.275
HMDSVTVPDISGYSPKAAEDSINNAGLKINEQGLSGSGDGQVVERTSPSAGSKVKKGDSVTVYYSKA	0.104
HMSEQMQVGELVFQLHRKAIKNLHINVLPPDGFVRVSAPQAMTETAIRTAVISRLPWIRRQQQAFAAQ	≥ 0.43
HMQVEYTRGELIQDLEGGKIVYAGISPSRETPTGEVNFILDSGLTRTLYVTDVSEIEQLLISYDIDPEVKK	-1.63
HMNIVKGDTTANVRVVQQRLYNLGYYTYKVDGIWGTRTKTAVKKFQKDKGLVADGIVGAKTEKALGITLT	-0.252
HMINEVVSLRDVPSFIGKAKRDVIRIAEENNLKIKINGNGYVKEQTPNPGNKYKSNQEIKVFLEPG	0.0157
HMSPILTPDQATKAYGKDGVLYIHSNKERTIYIYDVTGRTVRILEAVEGENQINGLEKGIYFLEGQKVAV	-0.378
HMLKETGVITASVLNVREDIGTSSNIVAQLKKGMEVNILESRAIAGSETWYRIDAGSIKGWIFGDYI	-2.29
HMDYVKTLGETINVRVAASTDADIYKLLPGGEILNRVGYNEEWTKVMVDGSTFYVYSEYVIQTEPPA	-1.25
HMGPTGGLTPHIAIADKRASEAIEFYKQAFGAVEQVRMPAEDGVRLMHAHLLVNGSSLMMHDDFPEYSGQ	0.0087
HMDINLGIGPLVKKYRTIKGYSIRELARNINVTASMLSQIERDIVNPSINTLKAISVELGVPMYKFFM	-0.217
HMDLFSAVVHHIVGQQISTKAQATIWKRMRDEFGVVDAAAVLGAGVEKLQSFGMTFRKAEYITDFARKIE	-0.651
HMTTLTPIGKMKGEIDGDFEAFYLAVDKDGQVYLNRDPDYSENRYEKSRGWELVTREQLAVYEKELHFIP	-0.25
HMDPALSPAEQKIWDLLAAGETHIDDLVRASGLPVATVNSALVMMEMKEVISQVAAKTYRRNRRN	-0.458
HMKTALDEAKDFLNGALSKGHRPASDVVDEAKEASISEKTLKRAKLAIGIITRKEGFGSEGKWVWELPAR	0.0771
HMSVLSEQIKEQLMEDIFHKKYKAGDRIVESALARELGVSQASVREALRSLIAMGFLENEPFKGITVR	0.107
HMQRDDMQIDRLIQIVFLLLSRNNLTAKQLAEELGVSTRTIYRDINILSVAGIPITSQKGYGGGLSLLQG	-0.261

Sequence	soluble fraction (log2)
HMQEPIAVPDFINKSAVDVLVNPVFTQNFKLVSEDVYDDKVPEGYIVGQSVKSDTLVQPGTEIVIYV	0.0962
HMTARYQQVEDYIVRRIQDGSWPPGHRLPSEHELVQQFGMSRMTVNRALRDLMQKGRIVRVAGVGSFVAQD	0.22
HMSSRSLTYSDFIERVDAGQVDAVTLDGERIVIRAKDGNTYVAIKPQGEDVTGSLTRDLIAKGVDVEAEPQ	0.0187
HMKAGRNTLARQMAILEVLQKDGRALVDDLAARFETTPQTIRKDLSALAEVNQISRFHGGAALVG	-0.279
HMNPSFTMGTRIKEYIDAHYLEDLKLADIAEALHINLYYLSHTFKDLTGSSPMQYIIRRRIEE	-0.603
HMDEQVETLKNLISELPKEQLEVLVMRHYEDLSFKEISEKTGVSINTALGRMRYALINIRKLMKENN	-0.488
HMNDTLGVNIKRLRKEKGMTQDEVAKAVYTTRYNILRYESGKMTPSSEVIERLEKALGVPTGSLAQ	-0.0881
HMTEEYAVLWRVARQTLKPEAFDVLWMKYREQLSIAEIAGIMNRSETSVKVMLHRARKNLGTALESS	-0.262
HMPRSREVHVEPGMVLEDVTTGFVGAVIRTEKSAGIYVIELEDRRGRRRSFPLGGGFWLDGRPIIALPPLP	0.281
HMQNDDLTKLDGIGPYIEQRLNDIGIYNYEQLSKLNTEDIQKITELIDFFPGRIERDNWVSQAQLLKI	-0.807
HMSSDEDELESIIKRVFADNPIELERLQNGEDKLIKFFMGLVMRQTKGKYPPKIIIDLLNKS	-1.54
HMWPDDAIALPTRDGQDVGGAQERTMLAFASGAAGIRTVEEINPDGSITRLRTRYGWPTFETEGARTAAAE	-0.221
HMRAAEPTTDAQRDRRRRIVLTAMTMLQERGYDEIQMRDVAQQAGVALGTLYRYFPSKEQLFAHVLVE	-0.68
HMLYETLKKGDQGTSVKTLQEKLKALGYLTGAADGKYGAGTETAVKSFQKAAGLTETGTADPETLSAVYAA	0.0393
HMVEPDELTEREREVLQFVARGLSNKEIGAALALSPHTIKAHLRSILDKLHLRSRAEAAAWAVRSGLS	-0.162
HMIKLSTNENTALRLVMERGLVTESELKGLFDNPVAVMESLISKMIETNTHWIHSERSENGEWVYAWQ	-1.46
HMKERVSWDERLERFAKHITENESLPYPSSKEYAWFEENKALYDAGELEPVRAQSFAFLLKIMRRMNL	0.0752
HMNTAALSLQRRNEIKKWLLEEKTLTVAALSNRFNVTYETIRRDLEILEKEGFLKKVYGGAALNERV	0.244
HMHDLSQQIVRYLIQQGGSSSLTDKSDPQEIYRTFKVSKKKYKQALGNLYKSKTIVITSGKIELVD	0.306
HMIDHLPPQRAAVLAFLQRELVAGRSPSLAEIALAFGFASRNAAQKHVQALVADGLLEQATGRSRGLRLPG	-0.235
HMLRKTTDLDAIRSVAKDVIDQNPKAVEDYVGGKESAIGFLLGQVMRATKGTADANTVRELLKEILDS	-0.234
HMEHDTVLSKVFRRLREAHVPLSLDDIYQGLRKTVNNNSEIREKIVTLQERGLVAEILGPKGGKKYVAKPT	0.199
HMQMPDLTGKPRAEAVTTLAALGFTDVKFLDASAGDEPLDYVADQVVRTSPEAGAALASGQQITIYLAT	-0.0191
HMEETLRELAVKISKQVIKTGRNSVLEPMNPYERRIIHAVISEIEGVSSKSVGEDPNRKVVIMSTNP	-1.07
HMANPRLEYFLSNITPDWNEFSPELKNQLLIENADPYKLEQYILQVSPDMYIEEQNAPGTVRQMAGDITG	-1.54

Sequence	soluble fraction (log2)
HMEKKEWVIYITGAVKKPGVYRIPEGARVYQALEAAGGFTPEADRDAVNLAAMLQDGAHIKFPAVGEEV	0.0865
HMIPRGFSRYYILELLQKKPHTGKEIIDNAIKESGGRWNPSPGLIYPLLGRLLDENLIEETNDGKYK	-0.631
HMKQEFEMGLPNGVGEQMLAHAIEKFDVKLEHSEFGPKLIGTYEELEKAKVFLYEAIEARLNQLE	-0.875
HMSDPSRKADFIAALSSLGGSAGNGKLREQLGWDEPTYDAVKQTLLDEGAITNGRGRGGSVALAG	0.146
HMSVKLYPNPTRSVTTFATDVDKWYLYDNQGKLVSEGNTKTIDVTAFPVGIYFVKTIKGNNSTFVKLIV	-0.183
HMGHLTWTVTGIGHERRARTVAEQMSSVFGVLEARASSAGTVYLEFEREKIDEGGLEASLKRMGVTRVV	-2.05
HMSDFEASDPALLREGMRVQHLNFGKGTVITIEGAGANKKASVAFDGVGTKQLMLRFARLKIIYE	-0.622
HMKEETYHYTVRYVTDGGDILASYEGKATKDSVFFPEVKTFDGYTAVRGEEPMFHLVSDHAVFQIVYQKNG	0.204
HMNDRLAGMEGQRGEAATNFDQGEGKVKVGDTVWLAKQSDSTVIVEGDQIVVTGSENGLLKVRL	-0.453
HMNHYIGVDRAKEIALNHANLSETDVVFTKEKLENDDGGAEYEIEFHSGRTEYDYTIDAASGNIIEYDVDY	-0.17
HMSSEMATLRSIVDNKQAEKVHGMMVDMFTASAMVQVYDKVNDENQAKMREMLKTQKGFQRMADFALSKI	-0.535
HMTGIQDVPALETRRVGNTFFFDRATDVQVYDLQGRLLQQARKVTSVSIGHLQQGVYVLTDGRASVKVQ	-0.7
HMENSPLTHREAEVMRLMSEGKSNRAISEHLVISEKTVKNHVSSILQKMSVDDRTQAVLQAIKNGWVD	0.142
HMKPLIIPLELMQRLSSDKQLEAGFNRFSKSKQHEFAAYIAAAKRVETKVKRLEKIIPLILSGEGLNDR	0.333
HMAVKLELYRVFKEVAETGNISAAAKNLYISQSAVSQSIKQLETALQARLFARSPRGVTLTGEGQMLYQYV	-0.652
HMSISEFNYTEFNGLVEKGQVSEVTISGREIEGRLTSGESFKTYSPETDNSALVGDLLKNNVKINGKP	-0.158
HMHALSVKFSDEAAKTLPYDILSALRDVLALDPRPGYSRDENKIYRFEYADYNISFSVKDKTLTVLSAEK	-0.148
HMSGLVPAIGTKGEEGYIRESDIPGSNVKNPEEALAYMEWLKTQPSELLIPLYDEQGNVIGQFAVS	-0.681
HMKLQIQNIEIDKKISELAEGVSAEKLPFLAKLIDRSKLLNDKGEINEDSVKAAIEEVVKAFPDFK	-0.945
HMADLIVFTTDANKEKKVDDETYFYLDVVSDGKLVENYELTEKQYNYIKDLGVGEYVYNEKGKLDSYTAFT	-1.12
HMDNQSIVRINDGDGAWRQRLGEHFGHLPRDRKRGEIVLQVDAADWRWLQTQGYAPRFDAALSAQLQTTL	-0.147
HMLTLAVPNSINMRLDKYLSENIDYLSRSKIQGLINDGKVTINGENEKSSYKLNGDESIVIYYEE	-0.775
HMDDHLRLSDNERISAMSALATHFTEGRLDTSEFDERTLAASQAKSRGDLRPLFDDLPGQLPAALSP	-0.125
HMSREVTVPPLSGLTLRDAARTLAERGLLMEAEGQGAVHRQDPPAGTRVPTGTPVRVFLTLPEQNS	-0.511
HMDPTYYFNLYPNPSKDEVSLFTNFTGKINIEILDLAGKSILSDNPISTISLVSLKEGLYLVKVKS	-0.337
